Results from PMC3956929.

Tests used:
[1] = target: GAL4 DNA-binding domain-fused Bombyx mori Siwi (pDBD-Siwi) (Bombyx mori) (UniProt A8D8P8); test: two-hybrid; insect two-hybrid (I2H) in BmN4 cells: GAL4 DBD bait, p65 AD prey, 4xUAS-TATA-Luc reporter, luciferase at 72 h post-transfection, relative to the pUC18 control prey; also in BmN4-SID1 cells 72 h after dsRNA against HP1a, HP1b, Ago3, Siwi, putative piRNA-related genes or GFP (control)
[2] = target: GAL4 DNA-binding domain-fused Bombyx mori Ago3 (pDBD-Ago3) (Bombyx mori) (UniProt A9ZSZ2); test: as above
Chain of UniProt A9ZSZ2 (A9ZSZ2 whole entry, the tested form may be a part): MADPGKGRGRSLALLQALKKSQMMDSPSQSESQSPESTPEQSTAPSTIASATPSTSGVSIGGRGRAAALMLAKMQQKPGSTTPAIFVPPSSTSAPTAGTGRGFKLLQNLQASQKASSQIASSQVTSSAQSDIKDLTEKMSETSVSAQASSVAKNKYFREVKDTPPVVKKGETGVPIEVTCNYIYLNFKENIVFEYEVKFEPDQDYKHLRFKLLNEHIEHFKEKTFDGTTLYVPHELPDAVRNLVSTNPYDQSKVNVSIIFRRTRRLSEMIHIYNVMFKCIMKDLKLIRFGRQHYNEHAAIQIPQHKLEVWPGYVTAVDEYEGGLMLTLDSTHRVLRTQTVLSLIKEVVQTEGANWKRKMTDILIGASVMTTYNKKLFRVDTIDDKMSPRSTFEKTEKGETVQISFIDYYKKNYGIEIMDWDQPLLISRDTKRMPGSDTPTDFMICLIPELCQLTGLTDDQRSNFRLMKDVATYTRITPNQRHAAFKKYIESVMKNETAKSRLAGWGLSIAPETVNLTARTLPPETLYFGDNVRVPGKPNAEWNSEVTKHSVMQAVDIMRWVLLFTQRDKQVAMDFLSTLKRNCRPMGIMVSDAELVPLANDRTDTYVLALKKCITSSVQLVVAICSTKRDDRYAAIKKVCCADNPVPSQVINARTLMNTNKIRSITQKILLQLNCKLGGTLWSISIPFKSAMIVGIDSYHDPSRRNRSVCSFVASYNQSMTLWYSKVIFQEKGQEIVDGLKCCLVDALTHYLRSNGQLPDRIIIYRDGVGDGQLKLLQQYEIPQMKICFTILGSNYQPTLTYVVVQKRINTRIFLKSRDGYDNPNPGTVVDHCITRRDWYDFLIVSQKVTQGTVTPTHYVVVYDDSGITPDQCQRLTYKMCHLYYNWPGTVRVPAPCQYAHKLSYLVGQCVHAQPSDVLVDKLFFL

Chain of UniProt A8D8P8 (A8D8P8 whole entry, the tested form may be a part): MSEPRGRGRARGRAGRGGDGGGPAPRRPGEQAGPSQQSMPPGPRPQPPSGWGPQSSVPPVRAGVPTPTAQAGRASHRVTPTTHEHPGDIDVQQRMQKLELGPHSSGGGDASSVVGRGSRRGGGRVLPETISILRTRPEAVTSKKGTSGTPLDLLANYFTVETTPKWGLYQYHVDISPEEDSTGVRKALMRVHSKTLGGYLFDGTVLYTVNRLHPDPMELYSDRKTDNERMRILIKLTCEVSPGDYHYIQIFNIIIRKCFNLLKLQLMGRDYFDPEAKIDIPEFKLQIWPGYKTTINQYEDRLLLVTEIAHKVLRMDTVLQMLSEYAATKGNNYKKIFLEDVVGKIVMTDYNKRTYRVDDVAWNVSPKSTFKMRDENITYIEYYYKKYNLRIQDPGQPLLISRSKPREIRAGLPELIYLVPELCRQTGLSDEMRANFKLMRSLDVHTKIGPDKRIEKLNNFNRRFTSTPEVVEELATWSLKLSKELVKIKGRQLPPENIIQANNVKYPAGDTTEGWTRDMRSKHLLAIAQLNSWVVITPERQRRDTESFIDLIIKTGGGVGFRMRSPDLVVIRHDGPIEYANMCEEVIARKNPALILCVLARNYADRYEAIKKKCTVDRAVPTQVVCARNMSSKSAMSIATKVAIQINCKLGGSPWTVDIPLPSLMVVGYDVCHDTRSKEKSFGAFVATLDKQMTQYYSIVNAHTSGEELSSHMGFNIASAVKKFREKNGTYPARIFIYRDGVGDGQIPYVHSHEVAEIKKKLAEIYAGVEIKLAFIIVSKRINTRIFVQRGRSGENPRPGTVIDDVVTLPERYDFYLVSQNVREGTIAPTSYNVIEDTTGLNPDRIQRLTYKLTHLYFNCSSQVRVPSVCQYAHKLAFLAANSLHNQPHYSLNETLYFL

## p65 activation domain-fused Bombyx mori HP1a (pAD-HP1a) (natural protein)
[1]
  fold increase of reporter activity over the pUC18 control: > 10 fold
[2]
  fold increase of reporter activity over the pUC18 control: > 10 fold
